Measured values from publication PMC10457330, “Structural basis for the allosteric modulation of rhodopsin by nanobody binding to its extracellular domain” (Nature Communications, 2023).

B1: Nb12 (VHH)
VHH: QVQLVESGGGLVQPGGSLRLSCAASGFTFNRYVMNWVRQAPGKGLEWVSGISRDGSYTDYADSVKGRFTISRDNAKDTLYLQMNSLKPEDTAVYYCSKYNSVVTTPPGQGTQVTVSS
B2: Nb22 (VHH)
VHH: QVQLVESGGGLVQAGGSLRLSCTASGNSFTFYTMGWYRQAPGKQRELVASITHRDSTNYADSMKDRFTISRDNSKNTVYLQMNSLKAEDTAVYYCNLHGRTRLLGREYDYWGQGTQVTVSS

Columns and labels:
[1] = target: photoactivated bovine rhodopsin (Bos taurus (native, rod outer segments), UniProt P02699, all-trans-retinylidene chromophore after photoisomerization; N-linked glycans at Asn2 and Asn15)
[2] = target: ground-state bovine rhodopsin (native, from rod outer segments) (bovine, UniProt P02699, 11-cis-retinylidene chromophore (Schiff base at Lys296); N-linked glycans at Asn2 and Asn15)
Chain of ground-state bovine rhodopsin (native, from rod outer segments) (P02699 whole entry): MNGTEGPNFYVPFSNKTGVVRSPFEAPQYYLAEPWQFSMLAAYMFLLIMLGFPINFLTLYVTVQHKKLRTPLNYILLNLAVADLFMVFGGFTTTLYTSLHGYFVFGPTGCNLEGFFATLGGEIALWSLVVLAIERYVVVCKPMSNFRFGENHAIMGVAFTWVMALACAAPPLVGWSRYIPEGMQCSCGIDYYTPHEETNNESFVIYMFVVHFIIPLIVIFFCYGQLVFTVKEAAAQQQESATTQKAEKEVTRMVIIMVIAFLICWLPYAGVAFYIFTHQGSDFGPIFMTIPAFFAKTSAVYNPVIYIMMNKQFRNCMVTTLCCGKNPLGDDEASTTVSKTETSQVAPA

Chain of photoactivated bovine rhodopsin (P02699 whole entry): as above

| Binder | binding result [1] | binding result [2] |
| --- | --- | --- |
| B1 | binds | binds |
| B2 | binds | binds |
